Laboratory results: patent US20030175288A1 (GREEN PEPTIDE, published 2003)

B1: P9 (peptide)
peptide: NVLHFFNAPL
notes: synthetic peptide; also called gene 2 (HNRPL) 501-510
B2: P11 (peptide)
peptide: ILGELREKV
notes: synthetic peptide; also called gene 3 (WHSC2) 141-149
B3: P12 (peptide)
peptide: MLPLECQYL
notes: synthetic peptide; also called gene 3 (WHSC2) 157-165
B4: P13 (peptide)
peptide: TLLRKERGV
notes: synthetic peptide; also called gene 3 (WHSC2) 267-275
B5: P14 (peptide)
peptide: RIIYDRKFL
notes: synthetic peptide; also called EIF4EBP1 51-59; gene 4 51-59
B6: P15 (peptide)
peptide: IIYDRKFLM
notes: synthetic peptide; also called gene 4 (EIF4EBP1) 52-60
B7: P16 (peptide)
peptide: QILKGLLFL
notes: synthetic peptide; also called gene 5 (ppMAPkkk) 290-298
B8: P17 (peptide)
peptide: GLLFLHTRT
notes: synthetic peptide; also called gene 5 (ppMAPkkk) 294-302
B9: P1 (peptide)
peptide: RLQEWCSVI
notes: synthetic peptide; positions counted on the gene 1 product; also called UBE2V 43-51; gene 1 43-51
B10: P2 (peptide)
peptide: LLLLARWEDT
notes: synthetic peptide; also called gene 1 (UBE2V) 64-73
B11: P3 (peptide)
peptide: LIADFLSGL
notes: synthetic peptide; also called gene 1 (UBE2V) 85-93
B12: P5 (peptide)
peptide: ILPRKHHRI
notes: synthetic peptide; also called gene 1 (UBE2V) 208-216
B13: P7 (peptide)
peptide: CLYGNVEKV
notes: synthetic peptide; also called gene 2 (HNRPL) 404-412

biological target: T1, HLA-A0201 molecule on T2 cells (human); test: T2 cells with 10 µM peptide, HLA-A2 stained with mAb BB7.2, flow cytometry (relative MFI)
T1 construct: MHC class I molecule without peptide on T2 cells; detected with anti-HLA-A2 mAb BB7.2; also called HLA-A2 molecule
Protocol: Binding activity of the peptide to the HLA-A0201 molecule was tested using a T2 cell mutant strain (Cancer Res., 54:1071-1076, 1994.) The T2 cell expresses the HLA-A2 molecule on a cell surface without binding to a peptide, because of deficiency of TAP. Specifically, the synthesized peptide (10 μM) and the T2 cells were incubated at 26° C. for 3 h and, subsequently, incubated in 5% CO₂ and 95% air at 37° C. for 3 h. Thus, T2 cells, on whose surface the peptide was presented by HLA-A2, were obtained.

First: B1
Second: B2
The MFI of the first is lower: 832 for the first, 1090 for the second.

Compared with B3, B4 is lower in MFI: 780 for the first, 656 for the second.

Compared with B5, B6 is higher in MFI: 591 for the first, 789 for the second.

First: B7
Second: B8
The MFI of the first is higher: 887 for the first, 660 for the second.

Going from DLLSHAFFA (synthetic peptide) [P18] to B9, the MFI falls from 657 to 571.

First: QQLCVYWTV (synthetic peptide) [P19]
Second: B10
The MFI of the first is higher: 775 for the first, 607 for the second.

Compared with B11, LLQDWHVIL (synthetic peptide) [P4] is higher in MFI: 910 for the first, 1010 for the second.

First: B12
Second: ALVEFEDVL (synthetic peptide) [P6]
The MFI of the first is lower: 637 for the first, 819 for the second.

B13 showed an MFI of 783.
